According to publication PMC4813576, “Mit1 Transcription Factor Mediates Methanol Signaling and Regulates the Alcohol Oxidase 1 (AOX1) Promoter in Pichia pastoris*”:

Legend:
[1] = target: T1, Prm1 ZF domain (Pichia pastoris (Komagataella pastoris)) (UniProt C4R754); experiment: EMSA; conditions: EMSA: 50 mM Tris-HCl pH 8.0, 50 mM NaCl, 1 mM DTT, 0.05% NP-40, 50 ug/ml poly[d(I-C)], 5% glycerol, 30 min at 4 C; about 30 nM probe, 0-1 uM protein. …
T1 sequence: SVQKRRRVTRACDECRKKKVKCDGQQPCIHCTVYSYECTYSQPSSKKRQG

[2] = target: T2, Mit1 ZF domain (Pichia pastoris (Komagataella pastoris)) (UniProt C4R5Q1); experiment: EMSA; conditions: EMSA: 50 mM Tris-HCl pH 8.0, 50 mM NaCl, 1 mM DTT, 0.05% NP-40, 50 ug/ml poly[d(I-C)], 5% glycerol, 30 min at 4 C; about 30 nM probe, 0-1 uM protein. …
T2 sequence: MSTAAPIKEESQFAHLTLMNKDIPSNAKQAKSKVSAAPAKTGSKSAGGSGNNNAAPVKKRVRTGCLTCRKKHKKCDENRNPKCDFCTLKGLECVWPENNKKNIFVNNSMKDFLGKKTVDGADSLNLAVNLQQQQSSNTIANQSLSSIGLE

[3] = target: T3, Prm1 ZF domain (Pichia pastoris (Komagataella pastoris), UniProt C4R754 41-90); experiment: EMSA; EMSA: 50 mM Tris-HCl pH 8.0, 50 mM NaCl, 1 mM DTT, 0.05% NP-40, 50 ug/ml poly[d(I-C)], 5% glycerol, 30 min at 4 C; about 30 nM probe, 0-1 uM protein. Footprinting: 350 ng probe in 40 ul, 30 min at 25 C; conditions: protein: recombinant; tags: His6; label: Cy5
T3 chain: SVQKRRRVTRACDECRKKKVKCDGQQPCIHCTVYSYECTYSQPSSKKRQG

[4] = target: T4, Mit1 ZF domain (Pichia pastoris (Komagataella pastoris), UniProt C4R5Q1 1-150); experiment: as above; conditions: protein: recombinant; tags: His6; label: Cy5
T4 sequence: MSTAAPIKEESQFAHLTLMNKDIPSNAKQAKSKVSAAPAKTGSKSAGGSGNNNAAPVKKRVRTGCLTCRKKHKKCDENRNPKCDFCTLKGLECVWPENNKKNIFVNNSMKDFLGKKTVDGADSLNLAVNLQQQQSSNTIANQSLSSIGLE

Molecule: ACAGAATCTGGAGGTGTAAACACCGTCATTCCCTAATCTAAGTTTCTGTCCAGCCGTTTAGAAAGTTCCTCTTCGTCAATAAAGTTTAACTTTGAACGTGAGAGTTGAGCTAATCGGAAATACTCCCGAGAGCACACCCGAGCAGTGAAGCGGGGCATCATCAAAAGAATTAAGGGGTGCTGGGTGCGGATTGCGCGCAGTAGCTGGCATCAATGCCAAACGTAGAACTCATACATTCTCCTATCAGAATCATACGACATCGAGAGATACACCAGCCAGCACCACTTGAACACTCCCAAT (double strand) [PMIT1-A]
- binding [1]: binds

Molecule: ATTTTTGAGCATTCGTCAATCAATACCAAACAAGACAAACGGTATGCCGACTTTTGGAAGTTTCTTTTTGACCAACTGGCCGTTAGCATTTCAACGAACCAAACTTAGTTCATCTTGGATGAGATCACGCTTTTGTCATATTAGGTTCCAAGACAGCGTTTAAACTGT (double strand) [PAOX1 W3]
- binding [1]: binds
- binding [2]: binds

Molecule: CAATTCCTTCTATTAGGCTACTAACACCATGACTTTATTAGCCTGTCTATCCTGGCCCCCCTGGCGAGGTTCATGTTTGTTTATTTCCGAATGCAACAAGCTCCGCATTACACCCGAACATCACTCCAGATGAGGGCTTTCTGAGTGTGGGGTCAAATAGTTTCATGTTCCCCAAATGGCCCAAAACTGACAGTTTAAACGCTGTCTTG (double strand) [PAOX1 W2]
- binding [1]: no binding
- binding [2]: binds

Molecule: GATAGCACTCTGGATTGATCAGAAACTTCATATCCGGAGACAGATACTTGTCTGTCTTGCATATGGGGCAATATTCTTCAGTATCCATCCGATGATTACGATTAGTATTAGGTTGATGAATAATCCATAATGGTCCCCTGATGGAATATGCTCGCGAAGA (double strand) [PPRM1-A]
- binding [1]: binds

Molecule: GTTCTTCCCGTTCCGCTCTATCCGATAAGAGGTTGGCTTCCGAGAAGGTTGGTAGTTGGAATGACGTACAAAATGTACAACAAAGCAGATGTTGTTTAGCGCGATCGCCCCAACCCCTCTTGTTGTTAGACAGTCTTATGCATATTTCGTAGACCCGGGACTGTACATTCGTCCGTCCTCAACCATTGGTCATTTGGTAC (double strand) [PMIT1-D]
- binding [1]: binds

Molecule: TTGCTGTCAAGTAGGGGTTAGAACAGTTAAATTTTGATCATGAACGTTAGGCTATCAGCAGTATTCCCACCAGAATCTTGGAAGCATACAATGTGGAGACAATGCATAATCATCCAAAAAGCGGGTGTTTCCCCATTTGCGTTTCGGCACAGGTGCACCGGGGTTCAGAAGCGATAGAGAGACTGCGCTAAGCATTAATGAGATTATTTTTGAGCATTCGTCAAT (double strand) [PAOX1 W4]
- binding [1]: binds
- binding [2]: no binding

B1: W3 delta D (dsDNA)
DNA 1: ACAGTTTAAACGCTGTCTTGGAACCTAATATGACAAAAGCGTGATCTCATCCAAGATGAACTAAGTTTGGTTCGTTGAAATGCTAACGGCCAGTTGGTCAAAAAGAAACTTCCGAATGCTCAAAAAT
DNA 2: ATTTTTGAGCATTCGGAAGTTTCTTTTTGACCAACTGGCCGTTAGCATTTCAACGAACCAAACTTAGTTCATCTTGGATGAGATCACGCTTTTGTCATATTAGGTTCCAAGACAGCGTTTAAACTGT
- binding result [3]: no binding
- binding result [4]: binds

B2: W2 delta A (dsDNA)
DNA 1: CAATTCATGACTTTATTAGCCTGTCTATCCTGGCCCCCCTGGCGAGGTTCATGTTTGTTTATTTCCGAATGCAACAAGCTCCGCATTACACCCGAACATCACTCCAGATGAGGGCTTTCTGAGTGTGGGGTCAAATAGTTTCATGTTCCCCAAATGGCCCAAAACTGACAGTTTAAACGCTGTCTTG
DNA 2: CAAGACAGCGTTTAAACTGTCAGTTTTGGGCCATTTGGGGAACATGAAACTATTTGACCCCACACTCAGAAAGCCCTCATCTGGAGTGATGTTCGGGTGTAATGCGGAGCTTGTTGCATTCGGAAATAAACAAACATGAACCTCGCCAGGGGGGCCAGGATAGACAGGCTAATAAAGTCATGAATTG
- binding result [4]: binds

B3: W3 delta B delta C (dsDNA)
DNA 1: ACAGTTTAAACGCTGTCTTGGAACCTAATATGACAAAAGCGTGACAAGATGAACTAAGTTTGGTTCGTTGAAATGGCCAGTTGGTCAAAAAGAAACTTCCAAAAGTCGGCATACCGTTTGTCTTGTTTGGTATTGATTGACGAATGCTCAAAAAT
DNA 2: ATTTTTGAGCATTCGTCAATCAATACCAAACAAGACAAACGGTATGCCGACTTTTGGAAGTTTCTTTTTGACCAACTGGCCATTTCAACGAACCAAACTTAGTTCATCTTGTCACGCTTTTGTCATATTAGGTTCCAAGACAGCGTTTAAACTGT
- binding result [4]: binds

B4: W2 delta B (dsDNA)
DNA 1: CAATTCCTTCTATTAGGCTACTAACACCATGACTTCTGGCCCCCCTGGCGAGGTTCATGTTTGTTTATTTCCGAATGCAACAAGCTCCGCATTACACCCGAACATCACTCCAGATGAGGGCTTTCTGAGTGTGGGGTCAAATAGTTTCATGTTCCCCAAATGGCCCAAAACTGACAGTTTAAACGCTGTCTTG
DNA 2: CAAGACAGCGTTTAAACTGTCAGTTTTGGGCCATTTGGGGAACATGAAACTATTTGACCCCACACTCAGAAAGCCCTCATCTGGAGTGATGTTCGGGTGTAATGCGGAGCTTGTTGCATTCGGAAATAAACAAACATGAACCTCGCCAGGGGGGCCAGAAGTCATGGTGTTAGTAGCCTAATAGAAGGAATTG
- binding result [4]: binds

B5: W2 delta A delta B (dsDNA)
DNA 1: CAATTCATGACTTCTGGCCCCCCTGGCGAGGTTCATGTTTGTTTATTTCCGAATGCAACAAGCTCCGCATTACACCCGAACATCACTCCAGATGAGGGCTTTCTGAGTGTGGGGTCAAATAGTTTCATGTTCCCCAAATGGCCCAAAACTGACAGTTTAAACGCTGTCTTG
DNA 2: CAAGACAGCGTTTAAACTGTCAGTTTTGGGCCATTTGGGGAACATGAAACTATTTGACCCCACACTCAGAAAGCCCTCATCTGGAGTGATGTTCGGGTGTAATGCGGAGCTTGTTGCATTCGGAAATAAACAAACATGAACCTCGCCAGGGGGGCCAGAAGTCATGAATTG
- binding result [4]: no binding
